In article PMC6698954 (Antibodies, 2018):

B1: anti-WEEV E2/E3E2 single-domain antibody WB9 (VHH)
VHH: DVQLQASGGGLVQAGGSLRLSCATSGISVSNSDMGWYRQGPGKQRELVARNSRAGTTNYLDSVKGRFTISRDNAKNMVFLQMNSLKLEDTAVYYCNTNPINRWNIWGQGAQVTVSS
notes: also called Bt-WB9
B2: anti-WEEV E2/E3E2 single-domain antibody WF4 (VHH)
VHH: DVQLQASGGGLVQAGGSLRLSCAVSDNTTSLNGMGYYRGPPGKQREFVAYARNNGAPKYADSVMGRFTISVDNSKATVYLQMNNLGPEDTALYYCYAPDRWHTYWAGGTQVTVSS
notes: also called Bt-WF4
B3: anti-WEEV E2/E3E2 single-domain antibody WE10 (VHH)
VHH: DVQLQASGGGLVQAGGSLRLSCVASGLTFVNYAIDWYRQAPGKEREVVAGMWNDGVAYYGDFVKGRFTIARDNAKNTVYLQMNNLKPEDTAVYFCGARSRPNLQYDYWGQGTQVTVSS
notes: also called Bt-WE10
B4: anti-WEEV E2/E3E2 single-domain antibody WD11f (VHH)
VHH: EVQLQASGGGLVQSGGSLRLSCAGSGGTESSYRMAWFRQAPGTERVFVARVSDGGGSILYADSAKGRFTISRDNGKNTIHLQMFSLKPEDTAVYFCAAAFSWMPPSTVAADYEYWGQGTQVTVSS
notes: also called Bt-WD11f
B5: anti-WEEV E2/E3E2 single-domain antibody WH11 (VHH)
VHH: EVQLQASGGGLVQAGGSLRLTCVASGLTFVNYALDWYRQAPGKERELVAGMWSDGVAYYGDFVKGRFTMSRDNAKNMVYLQMNSLEPEDTAVYSCAARSRPTTQYDYWGQGTQVTVSS
notes: also called Bt-WH11
B6: anti-WEEV E2/E3E2 single-domain antibody WC10 (VHH)
VHH: DVQLQASGGGLVEAGGSLRLSCTTSGISVRNSDMGWYRQGPGKQRELIARSSRGGATNYLDSVTGRFTISRDNIKNTVFLQMNSLKPEDTAVYYCNTNPINHWNVWGQGTQVTVSS
notes: also called Bt-WC10

Target: T1, Recombinant WEEV glycoprotein (E2/E3E2) (Western equine encephalitis virus, …, UniProt P13897)
T1 construct: source: bought: IBT Bioservices
Test: SPR; ProteOn XPR36; […] (20 µg/mL in 10 mM sodium acetate pH 5.0); […]
Details: both partners purified

Binder | Kd [nM] | koff [s⁻¹] | kon [M⁻¹ s⁻¹]
B1 | 2.6 | 0.0029 | 1.1e+06
B2 | 24 | 0.0015 | 63000
B3 | 12 | 0.00083 | 70000
B4 | 7.2 | 0.53 | 7.3e+07
B5 | 22 | 0.0033 | 150000
B6 | 8.5 | 0.85 | 1e+08
